Sequences and labels used below:
B1: Protein maelstrom homolog, residues 3 to 71; numbered along this chain, Q96JY0 (parent)
chain: NRKASRNAYYFFVQEKIPELRRRGLPVARVADAIPYCSSDWALLREEEKEKYAEMAREWRAAQGKDPGP

± gives the uncertainty stated by the source.

The data set covers variants of B1. The experiment in a line: abundance fitness (aPCA) (normalised: wild type 0, dead -1); higher = more abundant; growth selection in yeast, the domain comes from the species named. The following applies: Homo sapiens.
NRKASRNCYYFFVQEKIPELRRRGLPVARVADAIPYCSSDWALLREEEKEKYAEMAREWRAAQGKDPGP [A8C]: the abundance fitness is -0.269 ± 0.24.

NRKASRNFYYFFVQEKIPELRRRGLPVARVADAIPYCSSDWALLREEEKEKYAEMAREWRAAQGKDPGP [A8F]: the abundance fitness was -0.936 ± 0.46.

Take NRKASRNLYYFFVQEKIPELRRRGLPVARVADAIPYCSSDWALLREEEKEKYAEMAREWRAAQGKDPGP [A8L]: the abundance fitness was -0.783 ± 0.11.

NRKASRNGYYFFVQEKIPELRRRGLPVARVADAIPYCSSDWALLREEEKEKYAEMAREWRAAQGKDPGP [A8G]: the abundance fitness is -0.057 ± 0.074.

On to NRKASRNYYYFFVQEKIPELRRRGLPVARVADAIPYCSSDWALLREEEKEKYAEMAREWRAAQGKDPGP [A8Y], for which the abundance fitness is -0.696 ± 0.17.

On to NRKASRNMYYFFVQEKIPELRRRGLPVARVADAIPYCSSDWALLREEEKEKYAEMAREWRAAQGKDPGP [A8M], for which the abundance fitness was -0.357 ± 0.061.

As to NRKASRNIYYFFVQEKIPELRRRGLPVARVADAIPYCSSDWALLREEEKEKYAEMAREWRAAQGKDPGP [A8I], the abundance fitness was -0.27 ± 0.21.

In the case of NRKASRNVYYFFVQEKIPELRRRGLPVARVADAIPYCSSDWALLREEEKEKYAEMAREWRAAQGKDPGP [A8V], the abundance fitness was -0.796 ± 0.12.

Turning to NRKASRNPYYFFVQEKIPELRRRGLPVARVADAIPYCSSDWALLREEEKEKYAEMAREWRAAQGKDPGP [A8P], the abundance fitness is -0.221 ± 0.083.

As to NRKASRNEYYFFVQEKIPELRRRGLPVARVADAIPYCSSDWALLREEEKEKYAEMAREWRAAQGKDPGP [A8E], the abundance fitness was -0.294 ± 0.14.

In the case of NRKASRNRYYFFVQEKIPELRRRGLPVARVADAIPYCSSDWALLREEEKEKYAEMAREWRAAQGKDPGP [A8R], the abundance fitness is -0.385 ± 0.072.

For NRKASRNKYYFFVQEKIPELRRRGLPVARVADAIPYCSSDWALLREEEKEKYAEMAREWRAAQGKDPGP [A8K], the abundance fitness is -0.483 ± 0.096.

NRKASRNTYYFFVQEKIPELRRRGLPVARVADAIPYCSSDWALLREEEKEKYAEMAREWRAAQGKDPGP [A8T]: the abundance fitness is -0.325 ± 0.11.

As to NRKASRNQYYFFVQEKIPELRRRGLPVARVADAIPYCSSDWALLREEEKEKYAEMAREWRAAQGKDPGP [A8Q], the abundance fitness is -0.304 ± 0.082.

Turning to NRKASRNHYYFFVQEKIPELRRRGLPVARVADAIPYCSSDWALLREEEKEKYAEMAREWRAAQGKDPGP [A8H], the abundance fitness was -0.498 ± 0.21.

For the variant NRKASRNNYYFFVQEKIPELRRRGLPVARVADAIPYCSSDWALLREEEKEKYAEMAREWRAAQGKDPGP [A8N], the abundance fitness is -0.429 ± 0.29.

As for NRKASRNSYYFFVQEKIPELRRRGLPVARVADAIPYCSSDWALLREEEKEKYAEMAREWRAAQGKDPGP [A8S], the abundance fitness was -0.177 ± 0.088.

For the variant NRKASRNDYYFFVQEKIPELRRRGLPVARVADAIPYCSSDWALLREEEKEKYAEMAREWRAAQGKDPGP [A8D], the abundance fitness was -0.046 ± 0.1.

With NRKASRNAYAFFVQEKIPELRRRGLPVARVADAIPYCSSDWALLREEEKEKYAEMAREWRAAQGKDPGP [Y10A], the abundance fitness is -0.403 ± 0.075.

For the variant NRKASRNAAYFFVQEKIPELRRRGLPVARVADAIPYCSSDWALLREEEKEKYAEMAREWRAAQGKDPGP [Y9A], the abundance fitness is -0.53 ± 0.14.

Turning to NRKASRNAWYFFVQEKIPELRRRGLPVARVADAIPYCSSDWALLREEEKEKYAEMAREWRAAQGKDPGP [Y9W], the abundance fitness was -0.242 ± 0.1.

Take NRKASRNAHYFFVQEKIPELRRRGLPVARVADAIPYCSSDWALLREEEKEKYAEMAREWRAAQGKDPGP [Y9H]: the abundance fitness is -0.137 ± 0.11.

Regarding NRKASRNAQYFFVQEKIPELRRRGLPVARVADAIPYCSSDWALLREEEKEKYAEMAREWRAAQGKDPGP [Y9Q], the abundance fitness was -0.033 ± 0.11.

Consider NRKASRNAVYFFVQEKIPELRRRGLPVARVADAIPYCSSDWALLREEEKEKYAEMAREWRAAQGKDPGP [Y9V], for which the abundance fitness was -0.222 ± 0.074.

In the case of NRKASRNAPYFFVQEKIPELRRRGLPVARVADAIPYCSSDWALLREEEKEKYAEMAREWRAAQGKDPGP [Y9P], the abundance fitness was -0.338 ± 0.08.

For the variant NRKASRNANYFFVQEKIPELRRRGLPVARVADAIPYCSSDWALLREEEKEKYAEMAREWRAAQGKDPGP [Y9N], the abundance fitness is -0.168 ± 0.17.

With NRKASRNACYFFVQEKIPELRRRGLPVARVADAIPYCSSDWALLREEEKEKYAEMAREWRAAQGKDPGP [Y9C], the abundance fitness was -0.289 ± 0.16.

NRKASRNAKYFFVQEKIPELRRRGLPVARVADAIPYCSSDWALLREEEKEKYAEMAREWRAAQGKDPGP [Y9K]: the abundance fitness was -0.037 ± 0.11.

With NRKASRNASYFFVQEKIPELRRRGLPVARVADAIPYCSSDWALLREEEKEKYAEMAREWRAAQGKDPGP [Y9S], the abundance fitness is -0.513 ± 0.1.

As for NRKASRNAGYFFVQEKIPELRRRGLPVARVADAIPYCSSDWALLREEEKEKYAEMAREWRAAQGKDPGP [Y9G], the abundance fitness was -0.61 ± 0.074.

For the variant NRKASRNADYFFVQEKIPELRRRGLPVARVADAIPYCSSDWALLREEEKEKYAEMAREWRAAQGKDPGP [Y9D], the abundance fitness is -0.185 ± 0.22.

Regarding NRKASRNAMYFFVQEKIPELRRRGLPVARVADAIPYCSSDWALLREEEKEKYAEMAREWRAAQGKDPGP [Y9M], the abundance fitness came out at 0.026 ± 0.08.

Turning to NRKASRNAFYFFVQEKIPELRRRGLPVARVADAIPYCSSDWALLREEEKEKYAEMAREWRAAQGKDPGP [Y9F], the abundance fitness came out at 0.18 ± 0.18.

Turning to NRKASRNAIYFFVQEKIPELRRRGLPVARVADAIPYCSSDWALLREEEKEKYAEMAREWRAAQGKDPGP [Y9I], the abundance fitness was -0.09 ± 0.13.

For the variant NRKASRNARYFFVQEKIPELRRRGLPVARVADAIPYCSSDWALLREEEKEKYAEMAREWRAAQGKDPGP [Y9R], the abundance fitness is -0.239 ± 0.06.

Turning to NRKASRNALYFFVQEKIPELRRRGLPVARVADAIPYCSSDWALLREEEKEKYAEMAREWRAAQGKDPGP [Y9L], the abundance fitness was -0.007 ± 0.035.

Regarding NRKASRNATYFFVQEKIPELRRRGLPVARVADAIPYCSSDWALLREEEKEKYAEMAREWRAAQGKDPGP [Y9T], the abundance fitness was -0.615 ± 0.12.

As to NRKASRNAEYFFVQEKIPELRRRGLPVARVADAIPYCSSDWALLREEEKEKYAEMAREWRAAQGKDPGP [Y9E], the abundance fitness came out at 0.001 ± 0.11.

As for NRKASRYAYYFFVQEKIPELRRRGLPVARVADAIPYCSSDWALLREEEKEKYAEMAREWRAAQGKDPGP [N7Y], the abundance fitness was -0.44 ± 0.18.
